Data taken from patent US7629135B2, “Toll-like receptor agonists and antagonists and methods of use thereof” (The Board of Trustees of the University of Illinois, priority 2006, dated 2009).

How the values were obtained:
[1] = system: mouse macrophage cell line RAW264.7; assay: G-CSF secretion in RAW264.7 cells (ELISA); format: cell-based; conditions: SAA 1 μM, time course
[2] = system: RelA/p65 binding to the CK-1 site of the G-CSF promoter; assay: Chromatin immunoprecipitation (ChIP) assay in RAW264.7 cells; format: cell-based, mouse; conditions: SAA 1 μM or TNFα 50 ng/ml
Method: To investigate the mechanism for SAA-induced G-CSF production, the level of G-CSF transcript in SAA-stimulated BMDM was determined. […] The induction of G-CSF transcript peaked at 4 h after SAA stimulation. Since transcription of the G-CSF gene involves NF-κB binding to the RelA/p65 consensus element in the CK-1 site of the G-CSF promoter (Dunn et al., 1994; Hareng and Hartung, 2002), the role of NF-κB in SAA-stimulated G-CSF expression was determined. […] Using oligonucleotide probe based on the sequence of the CK-1 site (−161 to −152 in the G-CSF promoter), a protein •DNA complex (FIG. 2C) was identified. […] Inclusion of a RelA/p65 antibody blocking peptide in the assay abrogated the immunoprecipitation (FIG. 2D).
ChIP assay: Reagents were obtained from Upstate Biotechnology, and ChIP assay was performed as per manufacturers specifications with minor modifications. Briefly, a total of 1×10^7 RAW264.7 cells were harvested and resuspended in a serum-free DMEM medium absence or presence of 1 μM SAA, or 50 ng/ml of TNFα, and incubated for 30 or 60 min at 37° C. Following stimulation, cells were crosslinked and then washed and resuspended in SDS-lysis buffer, and were sonicated (4 times for 10 s each, with a setting at ‘4’ on a Fisher Sonic 60 dismembrenator). […] The PCR products were analyzed on a 2.5% agarose gel.

[3] = system: TLR2-HeLa cells; assay: IL-8 secretion in TLR2-HeLa cells (ELISA); format: cell-based, human; conditions: SAA 1 μM, up to 24 hours
Method: FIG. 7 is a series of studies showing SAA-induced response in transfected HeLa cells. […] Pam3CSK4 is a known agonist for TLR2 and was used as a control. […] FIG. 7B is time course of SAA-induced IL-8 secretion in TLR2-HeLa cells compared to mock-transfected HeLa cells. SAA was used at 1 μM and the cells were stimulated for up to 24 hours. The supernatant was collected and secreted IL-8 was measured using ELISA.
In addition to the TLR2-HeLa cell line, a HeLa cell line stably expressing TLR2 and a 5xNF-κB luciferase reporter (pNF-kappaB-Luc, FIG. 13) was generated. This second cell line offers improved consistency between experiments by eliminating the need for transiently transfecting the NF-κB reporter each time an reporter assay is conducted. […] The TNFαc-stimulated reporter activity was used as an independent indicator for comparison. Both cell lines have been and will be used in characterization of SAA-induced functions and in screening assays. […] The TLR2-independent effect in IL-8 secretion was determined in parallel, in mock-transfected HeLa cells lacking the exogenous TLR2 (FIG. 7B).

[4] = molecular target: T1, TLR2:Fc fusion protein (Homo sapiens, UniProt O60603); assay: SAA-TLR2 interaction, ELISA-like binding assay; conditions: 0.0625 to 8 μg/ml ligand coated, 2 μg/ml TLR2:Fc
T1 construct: measured in an ELISA-like assay using a TLR2 extracellular domain:Fc fragment fusion protein; made in house; host or cells: CHO cells (pFuse-Fc vector, InvivoGen), purified from culture supernatant on protein A
T1 sequence (O60603 21-588 limits assumed): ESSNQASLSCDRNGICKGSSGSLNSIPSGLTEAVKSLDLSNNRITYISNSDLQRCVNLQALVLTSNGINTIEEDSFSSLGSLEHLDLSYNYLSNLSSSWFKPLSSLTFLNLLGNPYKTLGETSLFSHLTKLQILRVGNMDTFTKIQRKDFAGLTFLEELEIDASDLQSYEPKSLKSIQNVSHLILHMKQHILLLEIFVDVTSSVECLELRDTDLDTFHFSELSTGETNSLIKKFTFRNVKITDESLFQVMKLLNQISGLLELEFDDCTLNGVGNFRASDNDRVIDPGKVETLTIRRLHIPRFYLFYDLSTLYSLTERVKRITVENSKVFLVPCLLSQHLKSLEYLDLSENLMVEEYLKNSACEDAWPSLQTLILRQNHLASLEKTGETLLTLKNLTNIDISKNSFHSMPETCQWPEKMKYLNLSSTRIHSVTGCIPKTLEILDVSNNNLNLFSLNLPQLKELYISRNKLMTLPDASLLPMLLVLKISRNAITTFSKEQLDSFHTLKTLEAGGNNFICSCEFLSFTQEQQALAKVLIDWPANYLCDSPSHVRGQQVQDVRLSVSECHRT
Description: Another example of a method for screening antagonists that disrupt the SAA/TLR2 interaction involves a binding assay that includes a TLR2 ectodomain (extracellular domain) fused to an Fc fragment of immunoglobulin (TLR2:Fc), such as the assay used in FIG. 9B. This assay is typically used as a follow-up or secondary assay to that assay described above. In other words, any compounds collected from the assay described above are subjected to the TLR2:Fc-based binding assay to confirm that the antagonistic effect is on the disruption of SAA-TLR2 binding. This method is generally carried out as follows and is also described in the Examples. A TLR2:Fc fusion protein is generated such that the N-terminal 588 amino acids of human TLR2 are fused in frame to the Fc portion of mouse IgG2a. The cDNA encoding for the resulting chimeric protein is cloned in pFuse-Fc vector (InvivoGen), and stably transfected into CHO cells. […] Absorbance at 450 nm is measured on a SpectraMax 340 plate reader (Molecular Devices).
Assays for SAA-TLR2 interaction: The TL2:Fc fusion protein was generated such that the N-terminal 588 amino acids of human TLR2 protein were fused in frame with the Fc portion of mouse IgG2a. […] Absorbance at 450 nm was measured on a SpectraMax 340 plate reader (Molecular Devices). […]

B1: SAA: Recombinant human SAA purchased from PeproTech; major acute-phase protein of 104 amino acids (protein, UniProt P0DJI8 19-122, looked up)
Serum amyloid A-1 protein: RSFFSFLGEAFDGARDMWRAYSDMREANYIGSDKYFHARGNYDAAKRGPGGAWAAEVITDARENIQRFFGHGAEDSLADQAANEWGRSGKDPNHFRPAGLPEKY
B1 was tested, and the G-CSF production [1] was “time-dependent production of G-CSF”, the “pull-down of CK-1 DNA fragment by anti-RelA/p65 antibody” value [2] was “able to pull-down the CK-1 DNA fragment” and the “secretion of IL-8” value [3] was “time-dependent increase in the secretion of IL-8”. For the same molecule, the “binding to TLR2:Fc fusion protein” value [4] was “dose-dependent increase in SAA binding”.
